T1: HN receptor (HNR; CNTF-R/WSX-1/gp130) on F11 cells (Mus musculus, UniProt O70394+O88507)
T1 construct: endogenous in cells; host or cells: F11 neurohybrid cells
T1 sequence (O70394 25-623): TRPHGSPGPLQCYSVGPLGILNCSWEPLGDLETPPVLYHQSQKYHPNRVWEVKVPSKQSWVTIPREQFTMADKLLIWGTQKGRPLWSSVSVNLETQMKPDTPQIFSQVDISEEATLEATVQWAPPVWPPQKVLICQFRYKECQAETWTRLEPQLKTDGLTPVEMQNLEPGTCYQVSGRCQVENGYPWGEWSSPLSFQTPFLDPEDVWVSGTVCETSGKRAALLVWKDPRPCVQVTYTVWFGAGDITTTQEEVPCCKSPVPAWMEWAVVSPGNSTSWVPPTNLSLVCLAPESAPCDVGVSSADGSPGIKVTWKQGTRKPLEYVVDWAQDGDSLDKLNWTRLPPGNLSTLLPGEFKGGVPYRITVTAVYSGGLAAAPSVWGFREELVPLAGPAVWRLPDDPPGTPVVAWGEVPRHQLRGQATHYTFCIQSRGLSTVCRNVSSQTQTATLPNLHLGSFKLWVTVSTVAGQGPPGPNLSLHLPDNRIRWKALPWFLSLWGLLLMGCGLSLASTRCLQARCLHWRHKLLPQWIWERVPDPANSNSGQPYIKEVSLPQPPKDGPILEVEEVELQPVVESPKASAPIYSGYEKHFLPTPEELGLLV
T1 sequence (O88507 23-342): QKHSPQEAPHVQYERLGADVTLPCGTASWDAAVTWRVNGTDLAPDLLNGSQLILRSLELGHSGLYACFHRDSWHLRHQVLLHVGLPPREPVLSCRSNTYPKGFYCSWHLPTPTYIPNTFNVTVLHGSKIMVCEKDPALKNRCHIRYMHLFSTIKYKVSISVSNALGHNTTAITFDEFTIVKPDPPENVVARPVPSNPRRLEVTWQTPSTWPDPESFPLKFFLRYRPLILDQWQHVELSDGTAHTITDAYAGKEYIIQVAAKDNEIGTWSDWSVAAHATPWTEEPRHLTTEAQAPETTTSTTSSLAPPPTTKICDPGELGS
T1 sequence (Q00560 23-917 partner): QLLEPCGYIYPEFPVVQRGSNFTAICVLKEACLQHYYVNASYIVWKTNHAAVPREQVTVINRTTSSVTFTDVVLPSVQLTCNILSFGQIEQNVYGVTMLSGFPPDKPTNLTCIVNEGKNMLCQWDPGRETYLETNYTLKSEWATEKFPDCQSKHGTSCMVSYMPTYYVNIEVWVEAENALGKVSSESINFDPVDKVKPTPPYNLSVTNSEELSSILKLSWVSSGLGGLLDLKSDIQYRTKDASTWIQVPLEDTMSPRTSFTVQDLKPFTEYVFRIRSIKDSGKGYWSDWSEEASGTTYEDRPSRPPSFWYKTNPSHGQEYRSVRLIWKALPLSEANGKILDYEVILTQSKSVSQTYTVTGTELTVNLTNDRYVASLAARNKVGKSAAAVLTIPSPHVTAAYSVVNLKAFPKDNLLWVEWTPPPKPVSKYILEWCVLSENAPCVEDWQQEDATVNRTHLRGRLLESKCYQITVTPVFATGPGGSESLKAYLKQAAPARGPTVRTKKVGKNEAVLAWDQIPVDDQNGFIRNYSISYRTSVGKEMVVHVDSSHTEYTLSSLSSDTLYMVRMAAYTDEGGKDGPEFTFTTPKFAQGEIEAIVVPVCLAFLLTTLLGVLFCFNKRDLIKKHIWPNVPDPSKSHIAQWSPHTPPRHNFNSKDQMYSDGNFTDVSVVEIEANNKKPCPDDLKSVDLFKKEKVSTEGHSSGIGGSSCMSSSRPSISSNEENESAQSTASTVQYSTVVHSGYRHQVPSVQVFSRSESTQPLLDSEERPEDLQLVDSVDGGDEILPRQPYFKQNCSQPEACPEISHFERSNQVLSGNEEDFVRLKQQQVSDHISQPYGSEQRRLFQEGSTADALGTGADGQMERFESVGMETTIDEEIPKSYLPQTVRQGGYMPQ


How the values were obtained:
[1] = target: T1, HN receptor (HNR; CNTF-R/WSX-1/gp130) on F11 cells; test: Immunofluorescence-based binding assay (2): biotin-HN / biotin-HNG binding to F11 cells; conditions: biotin-HN; F11 cells with endogenous HNR or transfected with CNTF-R/WSX-1/gp130
Protocol: A) F11 cells were seeded on 96-well plates coated with poly-L-lysine (7×10^3 cells/well). An indicated amount of biotin-HN or biotin-HNG was added to the cells with or without 10 μM of unlabelled HNG or HNA, followed by a binding assay based on immunofluorescence reaction (2) (left panels). On the other hand, F11 cells were transfected with 0.5 μg of pcDNA3.1/GS-human CNTF-R, pEF1/MycHis-human WSX-1, and 1.0 μg of pCAG-human gp130. At 24 hrs after the transfection, the cells were re-seeded on 96-well plates coated with poly-L-lysine (7×10^3 cells/well). After 36 hrs the re-seeding, an indicated amount of biotin-HN or biotin-HNG was added to the cells with or without 10 μM of unlabeled HNG or HNA, followed by a binding assay based on immunofluorescence reaction (2) (right panels).
B) F11 cells were transfected with 0.5 μg of pRNA-U1.6/Shuttle vector, pRNA-U6.1/Shuttle-WSX-1 siRNA, pRNA-U6.1/Shuttle-CNTF-R siRNA, both pRNA-U6.1/Shuttle-WSX-1 siRNA and pRNA-U6.1/Shuttle-CNTF-R siRNA (0.5 μg each), pRNA-U6.1/Shuttle-FPR2 siRNA or pRNA-U6.1/Shuttle-LIFR siRNA. The total amount of vectors was adjusted to be 1.0 μg by including a backbone vector. At 24 hrs after the transfection, an indicated amount of biotin-HNG was added with or without unlabeled HNG, followed by a binding assay based on immunofluorescence reaction (2) at 72 hrs after the transfection.
E) F11 cells on 6-well plate (7×10^4 cells/well) were transfected with 1.0 μg of pRNA-U6.1/Shuttle vector, pRNA-U6.1/Shuttle-Bax siRNA, or both pRNA-U6.1/Shuttle-WSX-1 siRNA and pRNA-U6.1/Shuttle-CNTF-R siRNA (0.5 μg each). At 72 hrs after the transfection, the cells were added with an indicated amount of biotin-HN with or without unlabeled HN or HNA (100 μM) and subjected to an HN-binding assay based on immunofluorescence.
F11 cells (7×10^4/well in 6-well plates) were replated into 96-well plates (7×10^3 cells/well) at 24 hrs after transfection with indicated amounts of the plasmids encoding mycHis-WSX or V5-CNTF-R, and with PCAG-human gp130 if required. At 36 hrs after transfection, the cells were added with biotin-labeled HN or HNG of indicated concentrations in the presence or the absence of HNG (S14G-HN) or HNA (C8A-HN) of indicated concentrations (Hashimoto et al., 2001 a). After 6 hrs incubation, they were fixed with 4% paraformaldehyde in PBS for 30 min. After washing with PBS, cells were stained with FITC-conjugated avidin (Molecularprobe, Eugene, Oreg., USA). Immunofluorescence intensity was measured (excitation=485 nm, emission=535 nm) with a spectrofluorometer (Wallac1420 ARVOsx Multi Label Counter). Immunohistochemical analysis was done with a laser-scanning, confocal microscope LSM (Carl Zeiss, Germany).

[2] = system: primary cortical neurons (PCNs); test: Aβ neurotoxicity in primary cortical neurons, WST-8 / Calcein / LDH; format: cell-based, mouse; conditions: 25 μM Aβ; for inhibition of neurotoxicity by Aβ: cytokine alone, physiological levels (up to 100 ng/ml)
Protocol: B) PCNs were incubated with 25 μM Aβ (upper) in the presence of 10 μg of recombinant soluble human gp130 (lower “+”) or BSA (lower “−”). Cell viability was determined by WST-8 assay (upper) or Calcein fluorescence assay (lower) at 72 hr after the onset of treatment with Aβ.
C) PCNs were incubated with 25 μM Aβ (1-43) in the presence of 1 μg of neutralizing anti-mouse gp130 antibody (RX435) or control IgG. Cell viability and cell mortality were determined by Calcein fluorescence (left panel) and LDH assays (right panel), respectively, at 72 hr after the onset of treatment with Aβ (1-43).
[…] At 72 hr after incubation, the cells were harvested for WST-8 assays or/and Calcein fluorescence assays to show cell viability.
B) The soluble IL-6 receptor-α (sIL-6R) or the soluble CNTF-R (100 ng/ml) were added to the cells as in the above A), followed by the stimulation with its ligand, IL-6 or CNTF (100 ng/ml), respectively to show the effects on the neuronal cell death due to Aβ. The right and left graphs show the cell viabilities determined by WST-8 assays and Calcein fluorescence assays, respectively.
C) The neutralizing antibodies (1 μg) for the mouse gp130, mouse LIFR, mouse IL-11R and rat CNTF-R were added as in the above A), and cell viability was determined by Calcein fluorescence assays after 72 hours.
WST-8 assay was performed at 72 hrs after the treatment.
The primary culture of mouse cortical neurons was prepared as described previously (Sudo et al., 2000). Briefly, primary cortical neurons, obtained from embryonic day 14 (E14) ICR mice were seeded in poly-L-lysine-coated 96 well plates (Sumitomo Bakelite) at 2.5 or 5.0×10^4 cells/well in Neuron Medium (Sumitomo Bakelite) (Hashimoto et al., 2003; Niikura et al., 2004). Purity of neurons by this method was >98%. After 3 days, the culture medium was replaced with DMEM with N2 supplement. On the fourth day in vitro, 25 μM of Aβ (1-42) was added in association with indicated concentrations of HN or cytokines in the presence or the absence of soluble cytokine receptors or neutralizing antibodies. At 72 hrs after the onset of treatment, cell viability was assessed by WST-8 assay and/or Calcein fluorescence assay and cell mortality was assessed by the Trypan blue exclusion assay and LDH assay (Hashimoto et al, 2000, 2001 a b, 2003).

Row | Molecule | inhibition of neurotoxicity by Aβ [2] | also measured
1 | CC[C@H](C)[C@H](NC(=O)[C@H](CCC(=O)O)NC(=O)[C@H](CO)NC(=O)[C@@H](NC(=O)[C@H](CC(C)C)NC(=O)[C@H](CC(C)C)NC(=O)[C@H](CC(C)C)NC(=O)[C@H](CC(C)C)NC(=O)[C@H](CS)NC(=O)[C@H](CO)NC(=O)[C@H](Cc1ccccc1)NC(=O)CNC(=O)[C@H](CCCNC(=N)N)NC(=O)[C@@H]1CCCN1C(=O)[C@H](C)NC(=O)[C@@H](N)CCSC)[C@@H](C)O)C(=O)N[C@@H](CC(=O)O)C(=O)N[C@@H](CC(C)C)C(=O)N1CCC[C@H]1C(=O)N[C@H](C(=O)N[C@@H](CCCCN)C(=O)N[C@@H](CCCNC(=N)N)C(=O)N[C@@H](CCCNC(=N)N)C(=O)N[C@@H](C)C(=O)O)C(C)C [HN, Humanin] | – | Kd [1]: 1 to 10 µM
2 | recombinant soluble human gp130: recombinant soluble human gp130 consisting of the extracellular domain of human gp130; dominant-negative form (protein, UniProt P40189 23-619, looked up, extracellular domain, recombinant soluble human gp130 consisting of the extracellular domain of human gp130; dominant-negative form) extracellular domain: ELLDPCGYISPESPVVQLHSNFTAVCVLKEKCMDYFHVNANYIVWKTNHFTIPKEQYTIINRTASSVTFTDIASLNIQLTCNILTFGQLEQNVYGITIISGLPPEKPKNLSCIVNEGKKMRCEWDGGRETHLETNFTLKSEWATHKFADCKAKRDTPTSCTVDYSTVYFVNIEVWVEAENALGKVTSDHINFDPVYKVKPNPPHNLSVINSEELSSILKLTWTNPSIKSVIILKYNIQYRTKDASTWSQIPPEDTASTRSSFTVQDLKPFTEYVFRIRCMKEDGKGYWSDWSEEASGITYEDRPSKAPSFWYKIDPSHTQGYRTVQLVWKTLPPFEANGKILDYEVTLTRWKSHLQNYTVNATKLTVNLTNDRYLATLTVRNLVGKSDAAVLTIPACDFQATHPVMDLKAFPKDNMLWVEWTTPRESVKKYILEWCVLSDKAPCITDWQQEDGTVHRTYLRGNLAESKCYLITVTPVYADGPGSPESIKAYLKQAPPSKGPTVRTKKVGKNEAVLEWDQLPVDVQNGFIRNYTIFYRTIIGNETAVNVDSSHTEYTLSSLTSDTLYMVRMAAYTDEGGKDGPEFTFTTPKFAQGEIE | – | effect on HN-mediated neuroprotection ([2]; PCNs): complete suppression
3 | OSM: human OncostatinM, recombinant cytokine (protein, UniProt P13725 26-221, looked up) Oncostatin-M: AAIGSCSKEYRVLLGQLQKQTDLMQDTSRLLDPYIRIQGLDVPKLREHCRERPGAFPSEETLRGLGRRGFLQTLNATLGCVLHRLADLEQRLPKAQDLERSGLNIEDLEKLQMARPNILGLRNNIYCMAQLLDNSDTAEPTKAGRGASQPPTPTPASDAFQRKLEGCRFLHGYHRFMHSVGRVFSKWGESPNRSRR | did not inhibit | –
4 | IL-11: recombinant cytokine of the IL-6 family (protein, UniProt P47873 22-199, looked up) Interleukin-11: PGPPAGSPRVSSDPRADLDSAVLLTRSLLADTRQLAAQMRDKFPADGDHSLDSLPTLAMSAGTLGSLQLPGVLTRLRVDLMSYLRHVQWLRRAGGPSLKTLEPELGALQARLERLLRRLQLLMSRLALPQAAPDQPVIPLGPPASAWGSIRAAHAILGGLHLTLDWAVRGLLLLKTRL | did not inhibit | –
5 | CT-1: mouse cardiotropin-1, recombinant cytokine (protein, UniProt Q60753 1-203, looked up) Cardiotrophin-1: MSQREGSLEDHQTDSSISFLPHLEAKIRQTHNLARLLTKYAEQLLEEYVQQQGEPFGLPGFSPPRLPLAGLSGPAPSHAGLPVSERLRQDAAALSVLPALLDAVRRRQAELNPRAPRLLRSLEDAARQVRALGAAVETVLAALGAAARGPGPEPVTVATLFTANSTAGIFSAKVLGFHVCGLYGEWVSRTEGDLGQLVPGGVA | did not inhibit | –
